Laboratory results reported in publication PMC5364462.

Molecular target: Myr-GCN4-GFP
Test: fluorescence correlation spectroscopy (FCS); GFP-tagged membrane control proteins in live cells, same instrument and illumination conditions; cell line not stated; median molecular brightness

- median molecular brightness: 746 cpsm
Substance: Myr-GCN4-GFP
